Experimental data as given in the supplement of paper PMC5998384.

What was measured:
HeLa Kyoto [1] = experiment: melting temperature (median over replicates), in situ; higher = more thermally stable
HeLa Kyoto [2] = experiment: solubility in G1/S (NP-40 vs SDS abundance) (log2 ratio); higher = more soluble; settings: cell cycle stage: G1/S
HeLa Kyoto [3] = experiment: thermal stability score vs G1/S (z-score of summed log2 fold changes over temperatures); higher = more thermally stable than in G1/S
HeLa Kyoto [4] = experiment: solubility change mitosis vs G1/S (difference of NP-40 vs SDS log2 ratios) (log2 ratio difference); higher = more soluble in mitosis
[5] = cell cycle stage: early G1 (4.5 h after nocodazole release)
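For melting temperature (median over replicates), in situ in this document: HeLa Kyoto cells synchronized by double thymidine or nocodazole block, proteins quantified by TMT10plex mass spectrometry, three independent biological replicates.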
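For solubility change mitosis vs G1/S (difference of NP-40 vs SDS log2 ratios) in this document: synchronized HeLa Kyoto cells (double thymidine block for G1/S, nocodazole release for mitosis), protein amounts in NP-40 versus SDS lysates quantified by mass spectrometry, three biological replicates.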
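For solubility in G1/S (NP-40 vs SDS abundance) in this document: HeLa Kyoto cells arrested at G1/S by double thymidine block, proteins quantified by TMT10plex mass spectrometry in mild NP-40 versus SDS extracts, three biological replicates.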
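For thermal stability score vs G1/S (z-score of summed log2 fold changes over temperatures) in this document: synchronized HeLa Kyoto cells, proteins quantified by TMT10plex mass spectrometry, three biological replicates, mitosis taken 0.5 h after nocodazole release, G1/S directly after double thymidine block.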

Row | Sequence | melting temperature (HeLa Kyoto [1]; cell cycle stage: G1/S) [°C] | melting temperature (HeLa Kyoto [1]; cell cycle stage: mitosis) [°C] | solubility in G1/S (log2) (HeLa Kyoto [2]) | thermal stability score (HeLa Kyoto [3]; [5]) | thermal stability score (HeLa Kyoto [3]; cell cycle stage: mitosis) | solubility change mitosis (log2) (HeLa Kyoto [4])
1 | MKEEVKGIPVRVALRCRPLVPKEISEGCQMCLSFVPGEPQVVVGTDKSFTYDFVFDPSTEQEEVFNTAVAPLIKGVFKGYNATVLAYGQTGSGKTYSMGGAYTAEQENEPTVGVIPRVIQLLFKEIDKKSDFEFTLKVSYLEIYNEEILDLLCPSREKAQINIREDPKEGIKIVGLTEKTVLVALDTVSCLEQGNNSRTVASTAMNSQSSRSHAIFTISLEQRKKSDKNSSFRSKLHLVDLAGSERQKKTKAEGDRLKEGININRGLLCLGNVISALGDDKKGGFVPYRDSKLTRLLQDSLGGNSHTLMIACVSPADSNLEETLNTLRYADRARKIKNKPIVNIDPQTAELNHLKQQVQQLQVLLLQAHGGTLPGSITVEPSENLQSLMEKNQSLVEENEKLSRGLSEAAGQTAQMLERIILTEQANEKMNAKLEELRQHAACKLDLQKLVETLEDQELKENVEIICNLQQLITQLSDETVACMAAAIDTAVEQEAQVETSPETSRSSDAFTTQHALRQAQMSKELVELNKALALKEALARKMTQNDSQLQPIQYQYQDNIKELELEVINLQKEKEELVLELQTAKKDANQAKLSERRRKRLQELEGQIADLKKKLNEQSKLLKLKESTERTVSKLNQEIRMMKNQRVQLMRQMKEDAEKFRQWKQKKDKEVIQLKERDRKRQYELLKLERNFQKQSNVLRRKTEEAAAANKRLKDALQKQREVADKRKETQSRGMEGTAARVKNWLGNEIEVMVSTEEAKRHLNDLLEDRKILAQDVAQLKEKKESGENPPPKLRRRTFSLTEVRGQVSESEDSITKQIESLETEMEFRSAQIADLQQKLLDAESEDRPKQRWENIATILEAKCALKYLIGELVSSKIQVSKLESSLKQSKTSCADMQKMLFEERNHFAEIETELQAELVRMEQQHQEKVLYLLSQLQQSQMAEKQLEESVSEKEQQLLSTLKCQDEELEKMREVCEQNQQLLRENEIIKQKLTLLQVASRQKHLPKDTLLSPDSSFEYVPPKPKPSRVKEKFLEQSMDIEDLKYCSEHSVNEHEDGDGDDDEGDDEEWKPTKLVKVSRKNIQGCSCKGWCGNKQCGCRKQKSDCGVDCCCDPTKCRNRQQGKDSLGTVERTQDSEGSFKLEDPTEVTPGLSFFNPVCATPNSKILKEMCDVEQVLSKKTPPAPSPFDLPELKHVATEYQENKAPGKKKKRALASNTSFFSGCSPIEEEAH [KIF4A] | 45.7 | 48.8 | 0.00342 | 4.91 | 8.64 | 0.00592
2 | MKENKENSSPSVTSANLDHTKPCWYWDKKDLAHTPSQLEGLDPATEARYRREGARFIFDVGTRLGLHYDTLATGIIYFHRFYMFHSFKQFPRYVTGACCLFLAGKVEETPKKCKDIIKTARSLLNDVQFGQFGDDPKEEVMVLERILLQTIKFDLQVEHPYQFLLKYAKQLKGDKNKIQKLVQMAWTFVNDSLCTTLSLQWEPEIIAVAVMYLAGRLCKFEIQEWTSKPMYRRWWEQFVQDVPVDVLEDICHQILDLYSQGKQQMPHHTPHQLQQPPSLQPTPQVPQVQQSQPSQSSEPSQPQQKDPQQPAQQQQPAQQPKKPSPQPSSPRQVKRAVVVSPKEENKAAEPPPPKIPKIETTHPPLPPAHPPPDRKPPLAAALGEAEPPGPVDATDLPKVQIPPPAHPAPVHQPPPLPHRPPPPPPSSYMTGMSTTSSYMSGEGYQSLQSMMKTEGPSYGALPPAYGPPAHLPYHPHVYPPNPPPPPVPPPPASFPPPAIPPPTPGYPPPPPTYNPNFPPPPPRLPPTHAVPPHPPPGLGLPPASYPPPAVPPGGQPPVPPPIPPPGMPPVGGLGRAAWMR [CCNK] | 52.9 | 52 | -0.035 | 0.297 | 1.83 | 0.0659
3 | MKGMSHEPKSPSLGMLSTATRTTATVNPLTPSPLNGALVPSGSPATSSALSAQAAPSSSFAAALRKLAKQAEEPRGSSLSSESSPVSSPATNHSSPASTPKRVPMGPIIVPPGGHSVPSTPPVVTIAPTKTVNGVWRSESRQDAGSRSSSGGRERLIVEPPLPQEKAGGPAIPSHLLSTPYPFGLSPSSVVQDSRFPPLNLQRPVHHVVPPSTVTEDYLRSFRPYHTTDDLRMSSLPPLGLDPATAAAYYHPSYLAPHPFPHPAFRMDDSYCLSALRSPFYPIPTPGSLPPLHPSAMHLHLSGVRYPPELSHSSLAALHSERMSGLSAERLQMDEELRREREREREREREREADREREKEREREREKEREQEKEREREKERERELERQREQRAREKELLAAKALEPSFLPVAELHGLRGHATEERGKPSEQLTPTRAEKLKDAGLQAPKPVQHPLHPVPTPHHTVPSLISNHGIFSLPSSSAATALLIQRTNEEEKWLARQRRLRQEKEDRQSQVSEFRQQVLEQHLDMGRPPVPAEAEHRPESTTRPGPNRHEPGGRDPPQHFGGPPPLISPKPQLHAAPTALWNPVSLMDNTLETRRAESHSLHSHPAAFEPSRQAAVPLVKVERVFCPEKAEEGPRKREPAPLDKYQPPPPPPREGGSLEHQPFLPGPGPFLAELEKSTQTILGQQRASLPQAATFGELSGPLKPGSPYRPPVPRAPDPAYIYDEFLQQRRRLVSKLDLEERRRREAQEKGYYYDLDDSYDESDEEEVRAHLRCVAEQPPLKLDTSSEKLEFLQLFGLTTQQQKEELVAQKRRKRRRMLRERSPSPPTIQSKRQTPSPRLALSTRYSPDEMNNSPNFEEKKKFLTIFNLTHISAEKRKDKERLVEMLRAMKQKALSAAVADSLTNSPRDSPAVSLSEPATQQASLDVEKPVGVAASLSDIPKAAEPGKLEQVRPQELSRVQELAPASGEKARLSEAPGGKKSLSMLHYIRGAAPKDIPVPLSHSTNGKSKPWEPFVAEEFAHQFHESVLQSTQKALQKHKGSVAVLSAEQNHKVDTSVHYNIPELQSSSRAPPPQHNGQQEPPTARKGPPTQELDRDSEEEEEEDDEDGEDEEEVPKRKWQGIEAVFEAYQEHIEEQNLERQVLQTQCRRLEARHYSLSLTAEQLSHSVAELRSQKQKMVSERERLQAELDHLRKCLALPAMHWPRGYLKGYPR [GSE1] | 50.8 | 49.9 | 0.0704 | -0.121 | 0.454 | 0.0661
4 | MKIFCSRANPTTGSVEWLEEDEHYDYHQEIARSSYADMLHDKDRNVKYYQGIRAAVSRVKDRGQKALVLDIGTGTGLLSMMAVTAGADFCYAIEVFKPMADAAVKIVEKNGFSDKIKVINKHSTEVTVGPEGDMPCRANILVTELFDTELIGEGALPSYEHAHRHLVEENCEAVPHRATVYAQLVESGRMWSWNKLFPIHVQTSLGEQVIVPPVDVESCPGAPSVCDIQLNQVSPADFTVLSDVLPMFSIDFSKQVSSSAACHSRRFEPLTSGRAQVVLSWWDIEMDPEGKIKCTMAPFWAHSDPEEMQWRDHWMQCVYFLPQEEPVVQGSALYLVAHHDDYCVWYSLQRTSPEKNERVRQMRPVCDCQAHLLWNRPRFGEINDQDRTDRYVQALRTVLKPDSVCLCVSDGSLLSVLAHHLGVEQVFTVESSAASHKLLRKIFKANHLEDKINIIEKRPELLTNEDLQGRKVSLLLGEPFFTTSLLPWHNLYFWYVRTAVDQHLGPGAMVMPQAASLHAVVVEFRDLWRIRSPCGDCEGFDVHIMDDMIKRALDFRESREAEPHPLWEYPCRSLSEPWQILTFDFQQPVPLQPLCAEGTVELRRPGQSHAAVLWMEYHLTPECTLSTGLLEPADPEGGCCWNPHCKQAVYFFSPAPDPRALLGGPRTVSYAVEFHPDTGDIIMEFRHADTPD [PRMT7] | 49.5 | 51 | -0.014 | 0.131 | 1.01 | -0.0142
